# Assay results as given in the DeepSol protein solubility set.
# Experiment: soluble on expression in E. coli; label from the status in PepcDB or PDB records
row,Sequence,soluble on expression in E. coli
1,MNKKSSSMVNMPAPREPINQKIDTNNALVLNHNAIYEQRLAEITQSNTCDKAIVTVNPYGTAPLSLYLGVWMDEAAALEINVVDSEATTEEVRYQYDVHPGANLIPVCGMVSAVNNQITLRLASQIVGQYTVMTDALPPTDSANVSLGFPIISVSCPAQQASLMEEGLYFSTYFDRYNLAFDHNGIVRWYVSQEIPSYNFVRMDNGHFLATSQGINHCLNMYEFDIMGRVYTVYLLDNEFHHSILPIENNLAIAPSEYSNGRPDGYSTGKDGVSIINLSTGLEVAYYDMLYVMDYSRSPRPSGSAPGQDVSMDDWLHINQSYINEPNNLLICSGRHQSAIFGVNVDSGELRFIMANHEDWSDEFKQYLLTPVDDDGVPLYDLTSPGGIDAADKNFWTWGQHNIVEIPNDEPGILEFMVFDNGNYRSREDAKSLLPLDNFSRVVQFKINLNTMTVTRPYEYGKTEVGNRGYSSFVSAKHLLTNGHLVIHFGATTVDEFEHTITAQPGSSDLVDPDEGQQALGRLVLQEINKETKEVLFEAMVTSGYFKNEETNGTNYRYDISAFRVYKMPLFALEHHHHHH,soluble
2,MNKLRKTIGRLEVKCKNADAGCIVTCPLAHRKGHQDSCPFELTACPNEGCTSQVPRGTLAEHRQHCQQGSQQRCPLGCGATLDPAERARHNCYRELHNAWSVRQERRRPLLLSLLRRVRWLDQATSVVRRELAELSNFLEEDTALLEGAPQEEAEAAPEGNVGAEVVGEPRANIPCK,soluble
3,MNKLTIIVTYYNAEEYITGCLESIKQQRTQDFNLIIVNDGSTDQSKKLMDEAIKDYDKNIRFIDLDENSGHAHARNIALEEVETPYFMFLDADDELASYAITFYLEKFNNTDGLIAPIHSFTTQRPQFVDLDRVRVEYFNAKENINSFLRKQSACNIIFRTAIVRAHHIRFNENLNTYVDWSFVLEYMKYVNKFVRIFNFPFYFRGEVYDPFETLTLSEQNFDILFKDYVNSFYDAIKRATNPKVREFIVTKMGNKIANEFEPTRYDINERYQTHKDTLVELSKFLHVHLVKNQKLINKIETILLMNNETDKAFKVNQFRKTLRHVKNIVLRRKNKERSLYDLTDKEDNVKPKTIVFESFGGKNYSDSPKYIYEYMQKYYPNYRYIWSFKNPDKNVVPGSAEKVKRNSAEYYQAYSEASHWVSNARTPLYLNKKENQTYIQTWHGTPLKRLANDMKVVRMPGTTTPKYKRNFNRETSRWDYLISPNRYSTEIFRSAFWMDEERILEIGYPRNDVLVNRANDQEYLDEIRTHLNLPSDKKVIMYAPTWRDDEFVSKGKYLFELKIDLDNLYKELGDDYVILLRMHYLISNALDLSGYENFAIDVSNYNDVSELFLISDCLITDYSSVMFDYGILKRPQFFFAYDIDKYDKGLRGFYMNYMEDLPGPIYTEPYGLAKELKNLDKVQQQYQEKIDAFYDRFCSVDNGKASQYIGDLIHKDIKEQLEHHHHHH,soluble
4,MNKPNLENMNPNFPSSPPIDIISPFFPNILVLNSSSSIANAGVTMTAFTAASPNPITKLMLNLFREGNIESESARKPAIVVNAAPSNAFPVSEIASSAASSGDLPLFLSS,soluble
5,MNKRRVKPEHVRREEIVNAAYEVIFEVGLSNTTMAQIAKKAQLSVGIVSHYFGDKQGLINACMLEMLNVLRRKTAQYKAEVQDSHPESMIKAIIDSNFDISQVNQRAMRIWLDFWSASMHMPELSRLQRINDQRLYSNLKFHFLELMPKDQASIAARGLAALIDGLWLRGSLSQDTTFDSTLARSIAYDYVDTQLKLVKQIRQERQNE,not soluble
6,MNKYDIAVIGGGMVGAAVAVGFAKQGRSVVVVEGAEPKAFDAAQALDVRVSAISHQSVKLLESLDAWSAIEAMRVCPYRRLETWEHPECRTRFHSDELSLDQLGYIVENRLIQLGLWQAFAQFDNLTVKCPERLKDIDFNDGNRITLESGEQFDANWIIGADGANSKVRQLAGIGVTAWDYRQHCMLINVKTELPQQDITWQQFTPSGPRSFLPLCSLTEDGQEVGQGSLVWYDSPKRIKQLCAMTKPQLREEIVRHFPKELGDIEVLQFGSFPLTRRHAQSYSHRGCVLVGDSAHTINPLAGQGVNLGFKDVDVLLSVTQGQDELTDALLAKYERTRRPDNLLMQTGMDFFYKGFSNDLGPLKFARNAALKLAENSGPIKAQVLKYALGMLEHHHHHH,not soluble
7,MNLDKVNKYIKDFEKTIKKPKINFDKSKFYVGVDLGTANIVITILDKDGKPVAGVTQRSRVVRDGIVVDFMEAIEIVRKLKENLEKKLGIEITEGYTAIPPGVEQGSVRAIVNVIESAGIDVLKVVDEPTAASYVLGITDGVVVDLGGGTTGISILEKGKVIFVADEPTGGTHMTLVLAGSYGIDFETAEDIKTDKKKEKEVFVQITPVLQKMAAIVKKYIKDYKVKDVFLVGGACSFDGSESIFERELGLNIYKPYMPVYITPLGIALAGMKSLEHHHHHH,soluble
8,MNLDQAEITALTKRFETPFYLYDGDFIEAHYRQLRSRTNPAIQFYLSLKANNNIHLAKLFRQWGLGVEVASAGELALARHAGFSAENIIFSGPGKKRSELEIAVQSGIYCIIAESVEELFYIEELAEKENKTARVAIRINPDKSFGSTAIKMGGVPRQFGMDESMLDAVMDAVRSLQFTKFIGIHVYTGTQNLNTDSIIESMKYTVDLGRNIYERYGIVCECINLGGGFGVPYFSHEKALDIGKITRTVSDYVQEARDTRFPQTTFIIESGRYLLAQAAVYVTEVLYRKASKGEVFVIVDGGMHHHAASTFRGRSMRSNYPMEYIPVREDSGRRELEKVTIAGPLCTPEDCLGKDVHVPALYPGDLVCVLNSGAYGLSFSPVHFLGHPTPIEILKRNGSYELIRRKGTADDIVATQLQTESNLLFVDK,soluble
9,MNLDQELAEIRASSSDHTNYFYSSERREHMFDKVLTPSDVGKLNRLVIPKQHAENFFPLEDNQNGTVLDFQDKNGKMWRFRYSYWNSSQSYVMTKGWSRFVKEKKLFAGDTVSFYRGYIPDDNAQPERRRKIMFIDWRPRAEINFVHNINNHNFVFGSPTYPTARFYPVTPEYSMPYRSFPPFYQNQFQEREYLGYGYGRVVNGNGVRYYAGSPLDQHHQWNLGRSEPLVYDSVPVFPAGRVPPSAPPQPSTTKKLRLFGVDVEESSSSGDTRGEMGVAGYSSSSPVVIRDDDQSFWRSPRGEMASSSSAMQLSDDEEYKRKGKSLEL,soluble
10,MNLIGKWIVGVGESVLNRMPLVRPIYKSIKQLFESVLKEHSNSFKKVGLIEFPSSGTWAMVFVSSEVKGELAHRFNEMGQQMVAVFLPPTPVPTAGFLLFVPKDKIVMLDMTPEDAAKLLISGGLVAPDFTPPKVIAPVLEHHHHHH,soluble
11,MNLLEKTRKINAMLQKAAGRPVNFKEMAETLCEVIEANVFVVSRRGKLLGFAIKQSIENERMKRMLEERQFPEEYTKNLFNITETSPNIDINSEYTAFPVENRDLFKTGLTTIVPINGGGERLGTLILSRLDREFDNDDLILAEYGATVVGMEILREKAEEIEEEARSKAVVQMAISSLSYSELEAIEHIFEELDGTEGLLVASKIADRVGITRSVIVNALRKLESAGVIESRSLGMKGTYIKVLNDKFLSELEKLKSS,not soluble
12,MNLLLFFLLSTVSVFAVVSGTVEETARDVIDALAHAPFEEWSSVFIETNDRIRAEVIPSTLFIPNSSANGSDDRHKLASYHIVPQRLEFADLLLKPSRSRLPTLLNGSSILVTNNSATSFSIDGVLIIELDIYVDSFIAIHRIAYPLDYTTYGGGSKLISKWPLFTFMLVTVVWFI,soluble
13,MNLNYTIASQVNPHVVPFMQSDASRYRKDILSWPQRILRRQGKVISLGIMDFTRERLGNVPPVRRLLDHGYGIVGQRYYGDVNIIAPFNLRQYAYMLQNPRPHLFKLLQQQGERATLEHHHHHH,soluble
14,MNLSIFGLKNIPYLKEGDSIEKLIEESIKTSEFFIEDNDVLCIASKVVSIAEGQVMSLNEIQVSDVAKEIHRNIPRKDPRIIEIMLNLVNRDLSRLDIKKNYIGCRLENGLKLTSGGIDRKSVDEVFLLPNNPDASAKRISEYLKKSLGKNVAVVITDSDGREDKRGATQVAIGIYGIHPLRKTEVIDSQGETIKFQEETLCDMIAACAGLVMGQRGTGIPAVLIRGLDYKWSENTSIKEALNE,not soluble
15,MNMLKKSLTALVLLGGLGAPVVAHATPAAAEAASEVQVAWVDGKVRISWTEAAGIPNTVSLELPGKPRKTLGTTTAAGDNQLVVEPSALEPTNDPASVAKIVVSDPSTAEARSAGFDRYVRGATPLAPVMTGTGVLNWQFPADTAVDSTPNDPLDVDAPVQFVPKLTLGVTPGTTDECKTVVLPATTAPYGSVPKQISPYALELLNVSEWGQSKLAGVRVRSSSTAFSTPASTGYGTRITMTGSILLQTLQNPAAGNCEDVTDTAALGGHELALQAREDGGAWYAVGVSKTDAQGKYQFVVSNPGARQYRAVLKTAAASGAAHYQSISAERSVRATPQVIDASFADDTITLGQQPNARVTVAPYGSHQVALQFKNASGQWQGLMYRTLSAGRAESGPFAFSRLGDTQFRWWVASSTSTTGLPVDAGYTYPFTLHVS,not soluble
16,MNNLMVIDGIEVRRDAYGRYSLNDLHRAAGSLDKHKPAFWLRNEQTERLISELQICNSVNIEPVNVIRGGNNQGTYVCKELVYAYAMWISPSFHLKVIRTFDMV,not soluble
17,MNNNDIEYNAPSEIKYIDVVNTYDLEEEASKVVPHGGFNYIAGASGDEWTKRANDRAWKHKLLYPRLAQDVEAPDTSTEILGHKIKAPFIMAPIAAHGLAHTTKEAGTARAVSEFGTIMSISAYSGATFEEISEGLNGGPRWFQIYMAKDDQQNRDILDEAKSDGATAIILTADSTVSGNRDRDVKNKFVYPFGMPIVQRYLRGTAEGMSLNNIYGASKQKISPRDIEEIAGHSGLPVFVKGIQHPEDADMAIKRGASGIWVSNHGARQLYEAPGSFDTLPAIAERVNKRVPIVFDSGVRRGEHVAKALASGADVVALGRPVLFGLALGGWQGAYSVLDYFQKDLTRVMQLTGSQNVEDLKGLDLFDNPYGYEY,soluble
18,MNNQYLQFVREQLIIATADLSGATKGQLEAWQENAMFDTGRYRRKKIRYRDEVTGKMITRDNPPIPGKQSLAKGTSIPLVSPVEFSTSSWRRAVLSLEEHYKAWLLWCYSGSICWEYQIAITQWAWNEFNAQSGTRKIAGKTQERLKKLIWLAAQAVKAELFGGEGYEYQELALLAGVTTKNWSKTFTRHWVAMKHIFHRLDSEALLFVMRTRSKKRRHFQSKVLQK,not soluble
19,MNNSLIVRQLGLQDYQEIWHKMQDFTDTRNAETQDEIWLVQHYPVFTQGQAGKPEHLLQRSEIPVVQSVRGGQITYHAPGQQVMYVLIDIKRHKNLNVRQLVTALEQTVVKTLAEYGIESYPKPDAPGVYVDGKKICSLGLRIRRGCSFHGLALNINMDLNPFHYINPCGYAGLEMCQLADFVNQDKADCDNVSAKLIKHFANLLGYNITTLLEHHHHHH,soluble
20,MNNSNLAAARNLIQVVTGEWKSRCVYVATRLGLADLIESGIDSDETLAAAVGSDAERIHRLMRLLVAFEIFQGDTRDGYANTPTSHLLRDVEGSFRDMVLFYGEEFHAAWTPACEALLSGTPGFELAFGEDFYSYLKRCPDAGRRFLLAMKASNLAFHEIPRLLDFRGRSFVDVGGGSGELTKAILQAEPSARGVMLDREGSLGVARDNLSSLLAGERVSLVGGDMLQEVPSNGDIYLLSRIIGDLDEAASLRLLGNCREAMAGDGRVVVIERTISASEPSPMSVLWDVHLFMACAGRHRTTEEVVDLLGRGGFAVERIVDLPMETRMIVAARA,soluble
21,MNNVEKAIEALKKGEIILVYDSDEREGETDMVVASQFITPEHIRIMRKDAGGLICTALHPDICNKLGIPFMVDILEFASQKFKVLRELYPNDIPYDEKSSFSITINHRKTFTGITDNDRAFTIKKLAELVKEGRFNDFGKEFRSPGSVTLLRAAEGLVKNRQGHTEMTVALAELANLVPITTICEMMGDDGNAMSKNETKRYAEKHNLIYLSGEEIINYYLDKYLKD,soluble
